For series [1] the following is noted: mouse, in vivo. As to the method: Blood Circulation Time, Tissue Retention Time, and Bio-distribution. CD-1 mice (25-30 g, a group of four mice were tested) were anesthetized with isoflurane. Appropriate dosages of Gd-CA1.CD2 or Gd-DTPA were i.v. injected (via tail vein). Blood (~50 μl) samples were collected via orbital sinus of the mouse at different time points. The mouse was euthanized at the final time point. Tissue samples from kidney, liver, heart, and lung, were collected. Serum samples were prepared from the collected blood. For the bio-distribution analyses, the animals were euthanized at single time point (indicated) after i.v. administration of the contrast agent (indicated). The organ/tissue samples were collected. Tissue extracts were freshly made from collected samples using commercially available tissue extracting kits (Qiagen). CA1.CD2 was detected and quantified by immunoblotting and Sandwich-ELISA using a monoclonal antibody (OX45, detecting antibody) and a home made polyclonal antibody (PabCD2, capture antibody). A series of known amounts of CA1.CD2 samples mixed with blank mouse scrum or tissue extracts were used as standard in Sandwich-ELISA. ELISA signal from HRP was monitored using a Fluorstar fluorescence microplate reader. For quantification of Gd^3+ in the serum and tissue samples one hour (or indicated times) after the contrast agent administration, animals were sacrificed and critical organs were collected, and the tissues were then digested with concentrated nitric acid at 120-130° C. with proper amount of ^157Gd spike as an internal marker. The digested solution was analyzed by ICP-MS (Element 2) using an isotope dilution method.
CD-1 mice (25-30 g) were anesthetized with isoflurane. Appropriate dosages of Gd-CA1.CD2 and its PEgylated variants (with Gd and ^153Gd) or Gd-DTPA were i.v. injected (via tail vein). Blood (~50 μl) samples were collected via orbital sinus of the mouse at different time points. The mouse was euthanized at the final time point. Tissue samples from kidney, liver, heart, and lung were collected. Serum samples were prepared from the collected blood. For the bio-distribution analyses, the animals were euthanized at single time point (indicated) after i.v. administration of the contrast agent (indicated). The organ/tissue samples were collected. Tissue extracts were freshly made from collected samples using commercially available tissue extracting kits (Qiagen). CA1.CD2 and its variants were detected and quantified by immunoblotting and Sandwich-ELISA using a monoclonal antibody (OX45, detecting antibody) and a home made polyclonal antibody (PabCD2, capture antibody). A series of known amounts of CA1.CD2 samples mixed with blank mouse serum or tissue extracts were used as standard in Sandwich-ELISA. ELISA signal from HRP was monitored using a Fluorstar fluorescence microplate reader. For quantification of Gd^3+ in the serum and tissue samples one hour (or indicated times) after the contrast agent administration, animals were sacrificed and critical organs were collected, and the tissues were then digested with concentrated nitric acid at 120-130° ° C. with proper amount of ^153Gd spike as an internal marker. The digested solution was analyzed.

The nature of series [2]: In vitro r1 and r2 proton relaxivity. It is filed as physicochemical. The following applies: 3.0 T; 50 μM designed agents, 100 μM Gd-DTPA.
A short description of series [3]: In vitro r1 and r2 proton relaxivity. It is filed as physicochemical. The procedure:
Determination of r1 and r2 Relaxivity Values, Relaxation times, T1 and T2, were determined at 1.5, 3, 9.4 Tesla using a Siemens whole-body MR system (1.5, 3T) or a Bruker MRI scanner (9.4T). T1 was determined using inversion recovery and T2 using a multi-echo Carr-Purcell-Meiboom-Gill (CPMG) sequence. The contrast agent samples (200 μl) with different concentrations were placed in eppendorf tubes. The tubes were placed on a tube rack, which was placed in MRI scanners for the measurement of relaxation times r1 and r2 were calculated based on r1(mM^−1 S^−1)=(1/T1s−1/T1c)/C and r2(mM^−1 S^−1)=(1/T2s−1/T2c)/C, where T1s and T2s are relaxation times with contrast agent and T1c and T2c are relaxation times without contrast agent. C is the concentration of contrast agent in mM (the measured Gd^3+ concentrations by ICP-MS). […]

The next series deals with CD-1 mice. The experiment in a line: Mouse MR imaging. It is filed as in vivo. The procedure: (§1) Mouse MR Imaging. Care of experimental animals was in accordance with institutional guidelines. CD-1 mice (25-30 g, four mice were imaged) were anesthetized with an isoflurane gas mixture. The anesthetized animal was positioned and stabilized with soft-supporting material (e.g., foam) in the scanner in the coil cradle and was kept warm during the MRI scan. The mice were scanned prior to the administration of any contrast agent (pre-contrast). Approximately 50 μl of Gd-CA1.CD2 (~1.2 mM) or Gd-DTPA (~300 mM) were injected into the animal via the tail vein. MR images were collected at different times (indicated). For T1 weighted imaging at 3T, spin echo sequence with TE/TR=15 ms/500 ms was employed. Rectangular Field of View (FOV) at 100/40 mm, an acquisition matrix of 196^2 and 1.1 mm slice thickness without gap were used. Images were collected from both transverse and coronal sections. The in-plane resolution of images was less than 0.5 mm after they were reconstructed to the matrix of 196^2. For T2 weighted imaging at 9.4T, MR images were recorded using a multi-echo Carr-Purcell-Meiboom-Gill (CPMG) sequence. The data were collected and processed by Dicomworks software. The MR signal intensity in several organs was ascertained by the average intensity in ROIs or points within the organs. Signal intensity for each organ was normalized to that of the leg muscle.
as §1, with “Care” for “Mouse MR Imaging. Care”, “(e.g.” for “(e.g.,”

B1: CA1.CD2: designed Gd^3+-binding protein, domain 1 of rat CD2 with ligand residues Glu15, Glu56, Asp58, Asp62, Asp64 (protein)
chain: RDSGTVWGALGHGIELNIPNFQMTDDIDEVRWERGSTLVAEFKRKMKPFLKSGAFEIDANGDLDIKNLTRDDSGTYNVTVYSTNGTRILNKALDLRILE
Regarding B1, in series [1], the “time first detectable in the kidney” value came to 15 min and the “time of peak in the kidney” value is 4 to 5 h. In addition, in series [1] (15 h), the “injected dose remaining in the kidney” value is “less than 10%”. In addition, the “time of sharp decrease in blood concentration of Gd^3+ and CA1.CD2” value in series [1] (iv) was “about 50 minutes”. The “contrast enhancement in T1 weighted imaging of samples” value in series [2] is on record as “did not lead to significant enhancement”.

B2: Gd-CA1.CD2: CA1.CD2 in complex with Gd^3+ (protein)
chain: RDSGTVWGALGHGIELNIPNFQMTDDIDEVRWERGSTLVAEFKRKMKPFLKSGAFEIDANGDLDIKNLTRDDSGTYNVTVYSTNGTRILNKALDLRILE
Consider B2, for which the “r1 relative to Gd-DTPA” value in series [3] (1.5T) is “about 20 fold”. The r1 entry was “up to 117 mM^−1 s^−1” in series [3] (B0 1.5 T); 117 mM⁻¹ s⁻¹ in series [3] (B0 1.5 T, listed as CA1); 48 mM⁻¹ s⁻¹ in series [3] (B0 3 T); 6 mM⁻¹ s⁻¹ in series [3] (B0 9.4 T). The “MRI contrast enhancement, T1 weighted spin echo” value in the series on CD-1 mice (3T, ~2.4 μmole Gd/kg via tail vein) is “greatest enhancement of the MRI contrast observed in the kidney”. Further, in the series with CD-1 mice (9.4T), the T2 contrast enhancement entry is recorded as “strong T2 contrast enhancement”. For the same molecule, the “T1 contrast enhancement in the kidney cortex” value in the series on CD-1 mice (18 hours after administration) is recorded as “diminished substantially”. Besides, the “duration of contrast enhancement at multiple organs” value in the series with CD-1 mice (mouse, in vivo) was in the range of 4 to 7 h. Moreover, the “time remaining in blood circulation” value in series [1] is given as “more than 3 hours”. Further, the “time without significant decrease in CA1.CD2 levels in blood” value in series [1] (iv) was 45 min. The “contrast enhancement in T1 weighted imaging of samples” value in series [2] is on record as “able to introduce contrast enhancement”.

(Values after patent publication US12708677B2, “Contrast agents, methods for preparing contrast agents, and methods of imaging” (Georgia State University Research Foundation, Inc., priority 2008, dated 2026).)
